Test results as given in article PMC5065529, “Wnt Signalosome Assembly by DEP Domain Swapping of Dishevelled” (Molecular Cell, 2016).
Several values for one entry are separate records, joined by “and”; a condition that tells them apart may be missing. Equal values may be shown once.

How the values were obtained:
[1] = target: DEP_(414–507)-GFP, minimal DEP domain of DVL2 (UniProt O14641); test: FZD5-dependent PM recruitment of DEP-GFP (cell scoring); conditions: 100 cells scored in each case, label printed as 'T526A:S529', new residue at 529 not given, read off a plot
[2] = target: the molecule itself; test: SEC-MALS; purified Lip-DEP_(416–511), WT or mutant, unfractionated or purified fractions; PBS, GE Superdex S-200 10/300 analytical column

SNAP-FZD5 (Frizzled 5), wild type (from UniProt Q13467) T526A:S529
other: % of cells with strong PM recruitment ([1]; parent: est. 52): 3 % of cells | other: % of cells with strong or weak PM recruitment (top of weak segment) ([1]; parent: est. 88): 24 % of cells

B1: Lip-DEP_(416–511) L445E (domain or fragment, human, UniProt O14641 416-511, looked up)
chain: GLSVHTDMASVTKAMAAPESGLEVRDRMWEKITIPNAFLGSDVVDWLYHHVEGFPERREARKYASGLLKAGLIRHTVNKITFSEQCYYVFGDLSGG
notes: Dishevelled 2 (DVL2), human, DEP domain, residues 416-511; source: E. coli BL21-CodonPlus(DE3)-RIL, purified
binding result [2]: binds

B2: Lip-DEP_(416–511) MLI > AAA (domain or fragment, human, UniProt O14641 416-511, looked up)
chain: GLSVHTDMASVTKAMAAPESGLEVRDRAWAKATIPNAFLGSDVVDWLYHHVEGFPERREARKYASGLLKAGLIRHTVNKITFSEQCYYVFGDLSGG
notes: Dishevelled 2 (DVL2), human, DEP domain, residues 416-511; the hydrophobic triad M443, L445, I447 changed to alanines; also called triple-alanine mutation of the hydrophobic triad; source: E. coli BL21-CodonPlus(DE3)-RIL, purified
binding result [2]: binds

B3: Lip-DEP_(416–511), lipoyl-tagged DEP domain of DVL2 (domain or fragment, human, UniProt O14641 416-511, looked up)
chain: GLSVHTDMASVTKAMAAPESGLEVRDRMWLKITIPNAFLGSDVVDWLYHHVEGFPERREARKYASGLLKAGLIRHTVNKITFSEQCYYVFGDLSGG
notes: Dishevelled 2 (DVL2), human, DEP domain, residues 416-511; Purified essentially as in Fiedler et al., 2011; details in the Supplemental Information; also called purified DEP; wt; source: E. coli BL21-CodonPlus(DE3)-RIL, purified (SEC)
stoichiometry N [2]: 2 and 4
